From the nanobody polyreactivity screen of Harvey et al. (2022)

Experiment: yeast display, Sf9 membrane polyspecificity reagent, FACS + sequencing; frameworks hold sequencing errors
Outline: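 After 36–48 hours of galactose induction, yeast (Saccharomyces cerevisiae BJ5465) displaying a synthetic nanobody library were stained at 4 °C for 1 hour with 10% biotinylated, detergent-solubilized Sf9 membrane reagent. Streptavidin microbeads enriched the stained cells before FACS sorting into low and high (top ~1%) gates on anti-HA and streptavidin fluorescence. Each clone's polyreactivity label reflects its gate of origin.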

QVQLVESGGGLVQAGGSLRLSSAASGSTFRYNAMGWYRQAPGKERELVAAITSTGDSTYYADSVKGRFTISRDNAKNTVYLQMNSLKPEDTAVYYCAARSYASPGWRYEYWGQGTQVTVSS
polyreactivity (PSR sort gate): low polyreactivity

QVQLVESGGGLVQAGGSLRLSSAASGSTFRYYPMGWYRQAPGKERELLARISWRGGSTYYADSVKGRFTISRDNAKNTVYLQMNSLKPEDTAVYYCAAVRWVRYRTSAYEYWGQGTQVTVSS
polyreactivity (PSR sort gate): high polyreactivity

QVQLVESGGGLVQAGGSLRLSSAASGSTFSLYTMGWYRQEPGKERELVAAITWTGGSTYYADSVKGRFTISRDNAKNTVYLQMNSLKPEDTAVYYCAAVSRLTGSRESQLIRSRMYYWGQGTQVTVSS
polyreactivity (PSR sort gate): high polyreactivity

QVQLVESGGGLVQAGGSLRLSSAASGSTFSYYAMGWYRQAPGKDRELVAAITSSGGSTYYADSVKGRFTISRDNAKNTVYLEMNSLKPEDTEVYYCNTAYHVPYDYWGQGTQVTVSS
polyreactivity (PSR sort gate): low polyreactivity

QVQLVESGGGLVQAGGSLRLSSAASGSTFTGYTMGWYRQATGKERELVASIRTYYADSVKGRFTISRDNAKNTVYLQMNSLKPEDTAVYYCAADFPSATGGYDYWGQGTQVTVSS
polyreactivity (PSR sort gate): low polyreactivity

QVQLVESGGGLVQAGGSLRLSSAASGSTFTRYGMGWYRQAPGKERELVAAITTSGSSTYYADSVKGRFTISRDNAKNTVYLQMNSLKPEDTAVYYCAADWSSWGFDYWGQGTQVTVSS
polyreactivity (PSR sort gate): low polyreactivity

QVQLVESGGGLVQAGGSLRLSSAASGSTFVTYAMGWYRQAPGKERELVAAISRRGGSTYYADSVKGRFTISRDNAKNTVYLQMNCLKPEDTAVYYCAPVQGSYSRDGADDYWGQGTQVTVSS
polyreactivity (PSR sort gate): high polyreactivity

QVQLVESGGGLVQAGGSLRLSSAASGSTLGVYAMGWYRQAPGKERELVAGITRGGGRTYYADSVKGRFTISRENAKNTVYLQMNSLKPEDTAVYYCNKGQRGPYDYWGQGTQVTVSS
polyreactivity (PSR sort gate): high polyreactivity

QVQLVESGGGLVQAGGSLRLSSAASGYILPFYAMGWYRQAPGKERELVASISSSSGRTNYADSVKGRFRISRDYAKNTVFFEMNSLKREVTEVYYCAAAFLSYVSTQYHYDYWGQGTQVSVSS
polyreactivity (PSR sort gate): low polyreactivity

QVQLVESGGGLVQAGGSLRLSSAATGITFSSYAMGSYRQAPGKERELVAAISTRGGSTYYADSVKGRFTISRDNAKNTVYLQMNSLKPEDTAVYYCATGGRGGRRYEYWGQGTQVTVSS
polyreactivity (PSR sort gate): low polyreactivity

QVQLVESGGGLVQAGGSLRLSSAATGSTSYNDMGWYRQATGKQRELGASITSSGDDTYYADSVKGRFTISRDNAKNTVYLQMNSLKPEDNAVYYCAAEDYHRHVGSYYVIDYDYWGQGTQVTVSS
polyreactivity (PSR sort gate): low polyreactivity

QVQLVESGGGLVQAGGSLRLSSAATGYIYSHNAMGWYRQSPGKEREFVAGIDSSGGSTSYADSVKGRFTISRDNAKNTVYLQMNSLKPEDTAVYYCAADRTGSHFDYCGQGTQVTVSS
polyreactivity (PSR sort gate): low polyreactivity

QVQLVESGGGLVQAGGSLRLSSADSGFIFSYYAMGWYRQAPGKERELVAAISSVGSTNYADSVKGRFTISRDNAKNTVYLQMNSLKPEDTAVYYCAARYLWYKYYYWGQGTQVTVSS
polyreactivity (PSR sort gate): high polyreactivity

QVQLVESGGGLVQAGGSLRLSSADSGRTFRYYSMGWYRQAPGKERELVAAISSSGASTYYADSVKGRFTISRDYAKNTVYLQMNSLKPEDTAVYYCRSGILFYSRYDYWGQGTQVTVSS
polyreactivity (PSR sort gate): low polyreactivity

QVQLVESGGGLVQAGGSLRLSSAPSGSTFTRYAMGWYRQAPGKERELVAAITSSGSRTYYADSVKGRFTISRDNAQNTVYLQKNSLKAEDTAVYYFAALGDTRYVGMDHWGQCTQVTVSS
polyreactivity (PSR sort gate): high polyreactivity

QVQLVESGGGLVQAGGSLRLSSAPSGSTIHTYTMGWYRQAPGKDRELVAGISRSGGTTYYADSVKGRFTISRDNAKNTVYLQMNSLKPEVTAVYDCNALSSKTDTYDYWGQGTQVTVSS
polyreactivity (PSR sort gate): high polyreactivity

QVQLVESGGGLVQAGGSLRLSSDASGFIFSFNALGWYRQAPGKERELVAAISRSGGSTRYADSVKGRFTISRDNAKNTVYLQMNSLKPEDTAVYYCANRFASYRYHPGYDYWGQGTQVTVSS
polyreactivity (PSR sort gate): high polyreactivity

QVQLVESGGGLVQAGGSLRLSSDASGRIFYVYTMGWYRQAPGKEREFVAAISDSGGSTYYADSVKGRFTISRDNAKNTVYLQMNSLQTEDTAVYYCNAGYGPAAYYWYYGGYYYWGQGTQVTVSS
polyreactivity (PSR sort gate): low polyreactivity

QVQLVESGGGLVQAGGSLRLSSDASGRILAGYAMGWYRQAPGKERELVAAITRGGTTYYADYVKGRFTISRDNAKNTVYLQINSMKPEDTAVVYTVSSAQYDFWGQGTQVTVSS
polyreactivity (PSR sort gate): low polyreactivity

QVQLVESGGGLVQAGGSLRLSSDASGSIFTAYSIGWYRQAPGKERELVADITQSAGSTYADSVKGRFTISRDNAKNTVYLQMNSLKPADTAVYYCAARYRYPYYARYGYWGQGTQVTVSS
polyreactivity (PSR sort gate): high polyreactivity

QVQLVESGGGLVQAGGSLRLSSPASGITFDKYAMGWYRQAPGKERELVAAISRSAGSTYYADSVKGRFTISRDNEKYSVYLQMKSLKPEDCAVYLCAGDPLIYDDYYWGQGTNVTVSS
polyreactivity (PSR sort gate): high polyreactivity

QVQLVESGGGLVQAGGSLRLSSPASGLIFGAYAMGWYRQERGKERELVAAISYSGGRTYYADSVKGRFTMSRDNAKNTVYLQLNSLKPEDTAVYYCNALWYLSLSYRYDYWGQGTQVTVSS
polyreactivity (PSR sort gate): high polyreactivity
